Publication doi:10.1101/2022.12.02.518933

Molecular target: AF647-labeled cysteine-less BtuCD Q111C reconstituted into nanodiscs (E. coli) (UniProt P06609)
Experiment: FRET or BRET

k fast (double exponential, green emission on addition of BtuCD*) [s⁻¹] | k slow (double exponential, green emission on addition of BtuCD*) [s⁻¹] | k fast (double exponential, with AMPPNP) [s⁻¹] | k fast (double exponential; initial single-lobe association) [s⁻¹] | k slow (double exponential, with AMPPNP) [s⁻¹] | k slow (double exponential; locking) [s⁻¹] | Binder
0.124 | 0.016 | – | – | – | – | AF546-labeled BtuF harboring the E202A mutation (natural protein, Alexa Fluor 546 C5 maleimide on the cysteine appended to the C-terminus) APRVITLSPANTELAFAAGITPVGVSSYSDYPPQAQKIEQVSTWQGMNLERIVALKPDLVIAWRGGNAERQVDQLASLGIKVMWVDATSIEQIANALRQLAPWSPQPDKAEQAAQSLLDQYAQLKAQYADKPKKRVFLQFGINPPFTSGKESIQNQVLEVCGGENIFKDSRVPWPQVSRAQVLARSPQAIVITGGPDQIPKIKQYWGEQLKIPVIPLTSDWFERASPRIILAAQQLCNALSQVD
– | – | 0.108 | 0.158 | 0.009 | 0.025 | AlexaFluor 546 (AF546)-labeled E. coli BtuF (natural protein, Alexa Fluor 546 C5 maleimide on the cysteine appended to the C-terminus) APRVITLSPANTELAFAAGITPVGVSSYSDYPPQAQKIEQVSTWQGMNLERIVALKPDLVIAWRGGNAERQVDQLASLGIKVMWVDATSIEQIANALRQLAPWSPQPDKAEQAAQSLLDQYAQLKAQYADKPKKRVFLQFGINPPFTSGKESIQNQVLEVCGGENIFKDSRVPWPQVSREQVLARSPQAIVITGGPDQIPKIKQYWGEQLKIPVIPLTSDWFERASPRIILAAQQLCNALSQVD
